The values that follow come from patent US7993648.

The target of the assay is CD70 (UniProt O55237). Briefly: cell-based or functional assay.
UniProt O55237, sequence (O55237 whole entry): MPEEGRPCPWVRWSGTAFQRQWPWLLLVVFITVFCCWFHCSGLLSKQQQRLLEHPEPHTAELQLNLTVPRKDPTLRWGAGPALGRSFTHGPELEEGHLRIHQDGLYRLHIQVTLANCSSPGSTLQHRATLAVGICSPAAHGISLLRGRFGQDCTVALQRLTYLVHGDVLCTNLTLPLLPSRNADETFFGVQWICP

For anti-CD70 blocking antibody FR70, the CD8+ T cell response (tetramer staining of day 7 PBLs) in CD4-depleted IFNαβR KO mice stood at 10 fold.
